Values quoted from earlier work, collected in PMC6323488.

Target: EGFR (Homo sapiens) (UniProt P00533)

Kd: 126 nM
Substance: CTGF (from UniProt P29279)
